This data set concerns the molecule itself. In words: cryo-EM structure.

B1: human connexin 36 Ala14 deletion variant gap junction channel in lipid nanodiscs containing brain lipids (Cx36_(Nano-BL)-∆A14) (natural protein, UniProt Q9UKL4 1-321, looked up)
chain: MGEWTILERLLEAVQQHSTMIGRILLTVVVIFRILIVAIVGETVYDDEQTMFVCNTLQPGCNQACYDRAFPISHIRYWVFQIIMVCTPSLCFITYSVHQSAKQRERRYSTVFLALDRDPPESIGGPGGTGGGGSGGGKREDKKLQNAIVNGVLQNTENTSKETEPDCLEVKELTPHPSGLRTASKSKLRRQEGISRFYIIQVVFRNALEIGFLVGQYFLYGFSVPGLYECNRYPCIKEVECYVSRPTEKTVFLVFMFAVSGICVVLNLAELNHLGWRKIKLAVRGAQAKRKSIYEIRNKDLPRVSVPNFGRTQSSDSAYV
B1: the binding result is reported as “binds”.

B2: human connexin 36 gap junction channel, wild type, in lipid nanodiscs containing brain lipids (Cx36_(Nano-BL)-WT) (natural protein, UniProt Q9UKL4 1-321, looked up)
chain: MGEWTILERLLEAAVQQHSTMIGRILLTVVVIFRILIVAIVGETVYDDEQTMFVCNTLQPGCNQACYDRAFPISHIRYWVFQIIMVCTPSLCFITYSVHQSAKQRERRYSTVFLALDRDPPESIGGPGGTGGGGSGGGKREDKKLQNAIVNGVLQNTENTSKETEPDCLEVKELTPHPSGLRTASKSKLRRQEGISRFYIIQVVFRNALEIGFLVGQYFLYGFSVPGLYECNRYPCIKEVECYVSRPTEKTVFLVFMFAVSGICVVLNLAELNHLGWRKIKLAVRGAQAKRKSIYEIRNKDLPRVSVPNFGRTQSSDSAYV
On to B2, for which the binding result was “binds”.

Values taken from publication PMC11512059 (Nature Communications, 2024).
